Test results: the supplement of paper PMC5998384

Legend:
HeLa Kyoto [1] = experiment: melting temperature (median over replicates), in situ; higher = more thermally stable
HeLa Kyoto [2] = experiment: solubility in G1/S (NP-40 vs SDS abundance) (log2 ratio); higher = more soluble; settings: cell cycle stage: G1/S
HeLa Kyoto [3] = experiment: solubility change mitosis vs G1/S (difference of NP-40 vs SDS log2 ratios) (log2 ratio difference); higher = more soluble in mitosis
HeLa Kyoto [4] = experiment: thermal stability score vs G1/S (z-score of summed log2 fold changes over temperatures); higher = more thermally stable than in G1/S
[5] = cell cycle stage: early G1 (4.5 h after nocodazole release)
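Wherever melting temperature (median over replicates), in situ is given: HeLa Kyoto cells synchronized by double thymidine or nocodazole block, proteins quantified by TMT10plex mass spectrometry, three independent biological replicates.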
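Wherever solubility change mitosis vs G1/S (difference of NP-40 vs SDS log2 ratios) is given: synchronized HeLa Kyoto cells (double thymidine block for G1/S, nocodazole release for mitosis), protein amounts in NP-40 versus SDS lysates quantified by mass spectrometry, three biological replicates.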
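Wherever solubility in G1/S (NP-40 vs SDS abundance) is given: HeLa Kyoto cells arrested at G1/S by double thymidine block, proteins quantified by TMT10plex mass spectrometry in mild NP-40 versus SDS extracts, three biological replicates.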
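Wherever thermal stability score vs G1/S (z-score of summed log2 fold changes over temperatures) is given: synchronized HeLa Kyoto cells, proteins quantified by TMT10plex mass spectrometry, three biological replicates, mitosis taken 0.5 h after nocodazole release, G1/S directly after double thymidine block.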

Row | Sequence | melting temperature (HeLa Kyoto [1]; cell cycle stage: G1/S) | melting temperature (HeLa Kyoto [1]; cell cycle stage: mitosis) | solubility in G1/S (log2) (HeLa Kyoto [2]) | solubility change mitosis (log2) (HeLa Kyoto [3]) | thermal stability score (HeLa Kyoto [4]; [5]) | thermal stability score (HeLa Kyoto [4]; cell cycle stage: mitosis)
1 | MVQAWYMDDAPGDPRQPHRPDPGRPVGLEQLRRLGVLYWKLDADKYENDPELEKIRRERNYSWMDIITICKDKLPNYEEKIKMFYEEHLHLDDEIRYILDGSGYFDVRDKEDQWIRIFMEKGDMVTLPAGIYHRFTVDEKNYTKAMRLFVGEPVWTAYNRPADHFEARGQYVKFLAQTA [ADI1] | 51.1 °C | 51.1 °C | 0.18 | -0.0474 | -0.911 | -0.735
2 | MSRFVQDLSKAMSQDGASQFQEVIRQELELSVKKELEKILTTASSHEFEHTKKDLDGFRKLFHRFLQEKGPSVDWGKIQRPPEDSIQPYEKIKARGLPDNISSVLNKLVVVKLNGGLGTSMGCKGPKSLIGVRNENTFLDLTVQQIEHLNKTYNTDVPLVLMNSFNTDEDTKKILQKYNHCRVKIYTFNQSRYPRINKESLLPVAKDVSYSGENTEAWYPPGHGDIYASFYNSGLLDTFIGEGKEYIFVSNIDNLGATVDLYILNHLMNPPNGKRCEFVMEVTNKTRADVKGGTLTQYEGKLRLVEIAQVPKAHVDEFKSVSKFKIFNTNNLWISLAAVKRLQEQNAIDMEIIVNAKTLDGGLNVIQLETAVGAAIKSFENSLGINVPRSRFLPVKTTSDLLLVMSNLYSLNAGSLTMSEKREFPTVPLVKLGSSFTKVQDYLRRFESIPDMLELDHLTVSGDVTFGKNVSLKGTVIIIANHGDRIDIPPGAVLENKIVSGNLRILDH [UGP2] | 55.9 °C | 56 °C | 0.158 | -0.072 | 0.682 | 0.921
3 | MDKQNSQMNASHPETNLPVGYPPQYPPTAFQGPPGYSGYPGPQVSYPPPPAGHSGPGPAGFPVPNQPVYNQPVYNQPVGAAGVPWMPAPQPPLNCPPGLEYLSQIDQILIHQQIELLEVLTGFETNNKYEIKNSFGQRVYFAAEDTDCCTRNCCGPSRPFTLRIIDNMGQEVITLERPLRCSSCCCPCCLQEIEIQAPPGVPIGYVIQTWHPCLPKFTIQNEKREDVLKISGPCVVCSCCGDVDFEIKSLDEQCVVGKISKHWTGILREAFTDADNFGIQFPLDLDVKMKAVMIGACFLIDFMFFESTGSQEQKSGVW [PLSCR1] | 57.7 °C | 57.2 °C | 0.1 | -0.349 | -0.835 | -1.61
4 | MAAESALQVVEKLQARLAANPDPKKLLKYLKKLSTLPITVDILAETGVGKTVNSLRKHEHVGSFARDLVAQWKKLVPVERNAEPDEQDFEKSNSRKRPRDALQKEEEMEGDYQETWKATGSRSYSPDHRQKKHRKLSELERPHKVSHGHERRDERKRCHRMSPTYSSDPESSDYGHVQSPPSCTSPHQMYVDHYRSLEEDQEPIVSHQKPGKGHSNAFQDRLGASQERHLGEPHGKGVVSQNKEHKSSHKDKRPVDAKSDEKASVVSREKSHKALSKEENRRPPSGDNAREKPPSSGVKKEKDREGSSLKKKCLPPSEAASDNHLKKPKHRDPEKAKLDKSKQGLDSFDTGKGAGDLLPKVKEKGSNNLKTPEGKVKTNLDRKSLGSLPKVEETDMEDEFEQPTMSFESYLSYDQPRKKKKKIVKTSATALGDKGLKKNDSKSTGKNLDSVQKLPKVNKTKSEKPAGADLAKLRKVPDVLPVLPDLPLPAIQANYRPLPSLELISSFQPKRKAFSSPQEEEEAGFTGRRMNSKMQVYSGSKCAYLPKMMTLHQQCIRVLKNNIDSIFEVGGVPYSVLEPVLERCTPDQLYRIEEYNHVLIEETDQLWKVHCHRDFKEERPEEYESWREMYLRLQDAREQRLRVLTKNIQFAHANKPKGRQAKMAFVNSVAKPPRDVRRRQEKFGTGGAAVPEKIKIKPAPYPMGSSHASASSISFNPSPEEPAYDGPSTSSAHLAPVVSSTVSYDPRKPTVKKIAPMMAKTIKAFKNRFSRR [TCEB3] | 47.8 °C | 49.2 °C | -0.429 | 0.454 | 0.335 | 1.24
5 | MAGKQAVSASGKWLDGIRKWYYNAAGFNKLGLMRDDTIYEDEDVKEAIRRLPENLYNDRMFRIKRALDLNLKHQILPKEQWTKYEEENFYLEPYLKEVIRERKEREEWAKK [UQCRB] | 53.9 °C | 52.2 °C | -0.132 | 0.253 | -3.18 | -2.78
6 | MAHTTKVNGSASGKAGDILSGDQDKEQKDPYFVETPYGYQLDLDFLKYVDDIQKGNTIKRLNIQKRRKPSVPCPEPRTTSGQQGIWTSTESLSSSNSDDNKQCPNFLIARSQVTSTPISKPPPPLETSLPFLTIPENRQLPPPSPQLPKHNLHVTKTLMETRRRLEQERATMQMTPGEFRRPRLASFGGMGTTSSLPSFVGSGNHNPAKHQLQNGYQGNGDYGSYAPAAPTTSSMGSSIRHSPLSSGISTPVTNVSPMHLQHIREQMAIALKRLKELEEQVRTIPVLQVKISVLQEEKRQLVSQLKNQRAASQINVCGVRKRSYSAGNASQLEQLSRARRSGGELYIDYEEEEMETVEQSTQRIKEFRQLTADMQALEQKIQDSSCEASSELRENGECRSVAVGAEENMNDIVVYHRGSRSCKDAAVGTLVEMRNCGVSVTEAMLGVMTEADKEIELQQQTIESLKEKIYRLEVQLRETTHDREMTKLKQELQAAGSRKKVDKATMAQPLVFSKVVEAVVQTRDQMVGSHMDLVDTCVGTSVETNSVGISCQPECKNKVVGPELPMNWWIVKERVEMHDRCAGRSVEMCDKSVSVEVSVCETGSNTEESVNDLTLLKTNLNLKEVRSIGCGDCSVDVTVCSPKECASRGVNTEAVSQVEAAVMAVPRTADQDTSTDLEQVHQFTNTETATLIESCTNTCLSTLDKQTSTQTVETRTVAVGEGRVKDINSSTKTRSIGVGTLLSGHSGFDRPSAVKTKESGVGQININDNYLVGLKMRTIACGPPQLTVGLTASRRSVGVGDDPVGESLENPQPQAPLGMMTGLDHYIERIQKLLAEQQTLLAENYSELAEAFGEPHSQMGSLNSQLISTLSSINSVMKSASTEELRNPDFQKTSLGKITGNYLGYTCKCGGLQSGSPLSSQTSQPEQEVGTSEGKPISSLDAFPTQEGTLSPVNLTDDQIAAGLYACTNNESTLKSIMKKKDGNKDSNGAKKNLQFVGINGGYETTSSDDSSSDESSSSESDDECDVIEYPLEEEEEEEDEDTRGMAEGHHAVNIEGLKSARVEDEMQVQECEPEKVEIRERYELSEKMLSACNLLKNTINDPKALTSKDMRFCLNTLQHEWFRVSSQKSAIPAMVGDYIAAFEAISPDVLRYVINLADGNGNTALHYSVSHSNFEIVKLLLDADVCNVDHQNKAGYTPIMLAALAAVEAEKDMRIVEELFGCGDVNAKASQAGQTALMLAVSHGRIDMVKGLLACGADVNIQDDEGSTALMCASEHGHVEIVKLLLAQPGCNGHLEDNDGSTALSIALEAGHKDIAVLLYAHVNFAKAQSPGTPRLGRKTSPGPTHRGSFD [KANK1] | 49.3 °C | 49.4 °C | -0.0496 | -0.0616 | 0.397 | 2.14
7 | MAQKKYLQAKLTQFLREDRIQLWKPPYTDENKKVGLALKDLAKQYSDRLECCENEVEKVIEEIRCKAIERGTGNDNYRTTGIATIEVFLPPRLKKDRKNLLETRLHITGRELRSKIAETFGLQENYIKIVINKKQLQLGKTLEEQGVAHNVKAMVLELKQSEEDARKNFQLEEEEQNEAKLKEKQIQRTKRGLEILAKRAAETVVDPEMTPYLDIANQTGRSIRIPPSERKALMLAMGYHEKGRAFLKRKEYGIALPCLLDADKYFCECCRELLDTVDNYAVLQLDIVWCYFRLEQLECLDDAEKKLNLAQKCFKNCYGENHQRLVHIKGNCGKEKVLFLRLYLLQGIRNYHSGNDVEAYEYLNKARQLFKELYIDPSKVDNLLQLGFTAQEARLGLRACDGNVDHAATHITNRREELAQIRKEEKEKKRRRLENIRFLKGMGYSTHAAQQVLHAASGNLDEALKILLSNPQMWWLNDSNPETDNRQESPSQENIDRLVYMGFDALVAEAALRVFRGNVQLAAQTLAHNGGSLPPELPLSPEDSLSPPATSPSDSAGTSSASTDEDMETEAVNEILEDIPEHEEDYLDSTLEDEEIIIAEYLSYVENRKSATKKN [NUB1] | 47.9 °C | 50.3 °C | -0.169 | -0.203 | 1.06 | 1.85
8 | MSVSLVVIRLELAEHSPVPAGFGFSAAAGEMSDEEIKKTTLASAVACLEGKSPGEKVAIIHQHLGRREMTDVIIETMKSNPDELKTTVEERKSSEASPTAQRSKDHSKECINAAPDSPSKQLPDQISFFSGNPSVEIVHGIMHLYKTNKMTSLKEDVRRSAMLCILTVPAAMTSHDLMKFVAPFNEVIEQMKIIRDSTPNQYMVLIKFRAQADADSFYMTCNGRQFNSIEDDVCQLVYVERAEVLKSEDGASLPVMDLTELPKCTVCLERMDESVNGILTTLCNHSFHSQCLQRWDDTTCPVCRYCQTPEPVEENKCFECGVQENLWICLICGHIGCGRYVSRHAYKHFEETQHTYAMQLTNHRVWDYAGDNYVHRLVASKTDGKIVQYECEGDTCQEEKIDALQLEYSYLLTSQLESQRIYWENKIVRIEKDTAEEINNMKTKFKETIEKCDNLEHKLNDLLKEKQSVERKCTQLNTKVAKLTNELKEEQEMNKCLRANQVLLQNKLKEEERVLKETCDQKDLQITEIQEQLRDVMFYLETQQKINHLPAETRQEIQEGQINIAMASASSPASSGGSGKLPSRKGRSKRGK [BRAP] | 50.3 °C | 50.2 °C | 0.1 | -0.181 | 0.558 | 1.83
9 | MQRALPGARQHLGAILASASVVVKALCAAVLFLYLLSFAVDTGCLAVTPGYLFPPNFWIWTLATHGLMEQHVWDVAISLTTVVVAGRLLEPLWGALELLIFFSVVNVSVGLLGAFAYLLTYMASFNLVYLFTVRIHGALGFLGGVLVALKQTMGDCVVLRVPQVRVSVMPMLLLALLLLLRLATLLQSPALASYGFGLLSSWVYLRFYQRHSRGRGDMADHFAFATFFPEILQPVVGLLANLVHSLLVKVKICQKTVKRYDVGAPSSITISLPGTDPQDAERRRQLALKALNERLKRVEDQSIWPSMDDDEEESGAKVDSPLPSDKAPTPPGKGAAPESSLITFEAAPPTL [TMEM115] | 55.8 °C |  | -0.146 | 0.0464 | -2.84 | -3.54
10 | MFGKRKKRVEISAPSNFEHRVHTGFDQHEQKFTGLPRQWQSLIEESARRPKPLVDPACITSIQPGAPKTIVRGSKGAKDGALTLLLDEFENMSVTRSNSLRRDSPPPPARARQENGMPEEPATTARGGPGKAGSRGRFAGHSEAGGGSGDRRRAGPEKRPKSSREGSGGPQESSRDKRPLSGPDVGTPQPAGLASGAKLAAGRPFNTYPRADTDHPSRGAQGEPHDVAPNGPSAGGLAIPQSSSSSSRPPTRARGAPSPGVLGPHASEPQLAPPACTPAAPAVPGPPGPRSPQREPQRVSHEQFRAALQLVVDPGDPRSYLDNFIKIGEGSTGIVCIATVRSSGKLVAVKKMDLRKQQRRELLFNEVVIMRDYQHENVVEMYNSYLVGDELWVVMEFLEGGALTDIVTHTRMNEEQIAAVCLAVLQALSVLHAQGVIHRDIKSDSILLTHDGRVKLSDFGFCAQVSKEVPRRKSLVGTPYWMAPELISRLPYGPEVDIWSLGIMVIEMVDGEPPYFNEPPLKAMKMIRDNLPPRLKNLHKVSPSLKGFLDRLLVRDPAQRATAAELLKHPFLAKAGPPASIVPLMRQNRTR [PAK4] | 51.3 °C | 50.5 °C | 0.0713 | -0.000436 | 0.186 | 0.111
